Data from patent US20180273599A1.
Each block holds one binder with its values, some of them ahead of it.

Columns and labels:
[1] = target: T1, betaglycan on LβT2 mouse pituitary gonadotrope cells (mouse) (UniProt O88393); assay: cell-based or functional assay
T1 sequence (looked up): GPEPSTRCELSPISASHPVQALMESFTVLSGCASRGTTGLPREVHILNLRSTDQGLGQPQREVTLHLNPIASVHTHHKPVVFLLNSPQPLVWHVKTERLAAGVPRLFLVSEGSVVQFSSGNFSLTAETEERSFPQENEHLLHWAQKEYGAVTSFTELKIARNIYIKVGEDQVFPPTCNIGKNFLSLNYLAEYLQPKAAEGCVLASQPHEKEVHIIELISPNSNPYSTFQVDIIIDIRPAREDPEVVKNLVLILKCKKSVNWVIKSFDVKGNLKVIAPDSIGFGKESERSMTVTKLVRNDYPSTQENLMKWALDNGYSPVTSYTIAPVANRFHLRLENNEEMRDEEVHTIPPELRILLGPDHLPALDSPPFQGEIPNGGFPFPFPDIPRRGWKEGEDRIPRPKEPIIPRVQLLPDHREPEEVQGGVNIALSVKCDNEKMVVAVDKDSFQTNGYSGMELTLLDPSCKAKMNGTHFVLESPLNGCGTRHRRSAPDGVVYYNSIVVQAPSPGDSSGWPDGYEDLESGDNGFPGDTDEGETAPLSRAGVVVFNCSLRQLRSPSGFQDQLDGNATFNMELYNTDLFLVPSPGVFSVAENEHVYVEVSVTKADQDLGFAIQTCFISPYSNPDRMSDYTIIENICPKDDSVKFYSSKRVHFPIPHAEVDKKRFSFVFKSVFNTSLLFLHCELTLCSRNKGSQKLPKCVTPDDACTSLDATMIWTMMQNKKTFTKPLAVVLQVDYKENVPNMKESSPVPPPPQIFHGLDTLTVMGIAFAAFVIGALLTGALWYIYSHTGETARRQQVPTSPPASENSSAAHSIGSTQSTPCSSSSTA

[2] = target: T2, betaglycan on primary rat pituitary cells (rat) (UniProt P26342); assay: cell-based or functional assay
T2 sequence (looked up): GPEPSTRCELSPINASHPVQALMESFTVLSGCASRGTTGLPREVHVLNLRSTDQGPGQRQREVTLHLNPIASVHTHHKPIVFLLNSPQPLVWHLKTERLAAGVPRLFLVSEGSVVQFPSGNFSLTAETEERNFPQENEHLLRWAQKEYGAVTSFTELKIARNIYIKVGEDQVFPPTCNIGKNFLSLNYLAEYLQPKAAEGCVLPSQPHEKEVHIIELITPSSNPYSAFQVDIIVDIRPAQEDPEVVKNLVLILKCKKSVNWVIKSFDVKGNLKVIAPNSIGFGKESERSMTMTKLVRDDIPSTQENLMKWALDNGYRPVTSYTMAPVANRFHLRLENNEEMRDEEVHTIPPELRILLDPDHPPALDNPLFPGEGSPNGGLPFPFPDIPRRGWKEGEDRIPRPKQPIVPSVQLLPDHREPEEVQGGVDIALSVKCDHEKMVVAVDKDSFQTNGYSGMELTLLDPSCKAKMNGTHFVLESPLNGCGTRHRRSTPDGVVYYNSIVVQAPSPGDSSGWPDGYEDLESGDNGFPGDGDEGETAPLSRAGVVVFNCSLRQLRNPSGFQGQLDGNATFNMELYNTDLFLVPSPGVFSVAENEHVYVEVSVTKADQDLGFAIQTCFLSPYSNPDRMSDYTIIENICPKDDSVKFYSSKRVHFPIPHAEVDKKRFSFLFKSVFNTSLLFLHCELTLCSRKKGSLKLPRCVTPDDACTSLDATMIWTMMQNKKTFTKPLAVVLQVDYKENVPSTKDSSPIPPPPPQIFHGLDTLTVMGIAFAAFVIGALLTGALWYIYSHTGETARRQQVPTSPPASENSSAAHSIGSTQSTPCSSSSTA

type I receptor (ALK4) = target: T3, type I receptor (ALK4) (UniProt P36896); assay: cell-based or functional assay
T3 sequence (looked up): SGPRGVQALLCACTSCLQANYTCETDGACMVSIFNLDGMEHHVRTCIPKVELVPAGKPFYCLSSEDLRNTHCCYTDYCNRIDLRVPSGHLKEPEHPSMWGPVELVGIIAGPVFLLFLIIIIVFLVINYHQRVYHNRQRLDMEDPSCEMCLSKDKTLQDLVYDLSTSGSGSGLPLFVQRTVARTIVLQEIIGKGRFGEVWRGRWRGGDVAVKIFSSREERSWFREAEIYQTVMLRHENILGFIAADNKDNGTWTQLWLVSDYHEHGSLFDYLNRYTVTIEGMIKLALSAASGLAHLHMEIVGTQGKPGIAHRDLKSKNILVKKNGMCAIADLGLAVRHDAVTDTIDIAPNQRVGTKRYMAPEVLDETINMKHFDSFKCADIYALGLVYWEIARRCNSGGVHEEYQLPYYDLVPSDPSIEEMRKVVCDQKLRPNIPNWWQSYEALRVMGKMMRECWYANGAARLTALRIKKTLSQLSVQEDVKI

[3] = target: T4, HIS-tagged inhibin α-subunit prodomain (human) (UniProt P05111); assay: IMAC (Ni-NTA) co-purification from HEK293T conditioned medium; Western blot and ELISA
T4 sequence: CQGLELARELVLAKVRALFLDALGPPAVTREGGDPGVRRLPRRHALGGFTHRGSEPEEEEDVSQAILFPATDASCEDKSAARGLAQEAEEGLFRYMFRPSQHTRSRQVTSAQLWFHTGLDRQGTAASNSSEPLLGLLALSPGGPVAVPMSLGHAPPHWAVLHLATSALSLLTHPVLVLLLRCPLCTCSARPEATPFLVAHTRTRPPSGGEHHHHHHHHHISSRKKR

IC50, FSH release by LβT2 pituitary gonadotrope cells [1]: 0.045 nM | potency in FSH release by LβT2 cells, against mature inhibin A [1]: 22 fold | IC50, decrease in FSH release by primary rat pituitary cells [2]: 0.075 nM
B1: Pro-inhibin A (M418A) (ligand)
chain 1: CQGLELARELVLAKVRALFLDALGPPAVTREGGDPGVRRLPRRHALGGFTHRGSEPEEEEDVSQAILFPATDASCEDKSAARGLAQEAEEGLFRYMFRPSQHTRSRQVTSAQLWFHTGLDRQGTAASNSSEPLLGLLALSPGGPVAVPMSLGHAPPHWAVLHLATSALSLLTHPVLVLLLRCPLCTCSARPEATPFLVAHTRTRPPSGGEHHHHHHHHHISSRKKRSVSSTPLMSWPWSPSALRLLQRPPEEPAAHANCHRVALNISFQELGWERWIVYPPSFIFHYCHGGCGLHIPPNLSLPVPGAPPTPAQPYSLLPGAQPCCAALPGTMRPLHVRTTSDGGYSFKYETVPNLLTQHCACI
chain 2: DYKDDDDKSPTPGSEGHSAAPDCPSCALAALPKDVPNSQPEMVEAVKKHILNMLHLKKRPDVTQPVPKAALLNAIRKLHVGKVGENGYVEIEDDIGRRAEMNELMEQTSEIITFAESGTARKTLHFEISKEGSDLSVVERAEVWLFLKVPKANRTRTKVTIRLFQQQKHPQGSLDTGEEAEEVGLKGERSELLLSEKVVDARKSTWHVFPVSSSIQRLLDQGKSSLDVRIACEQCQESGASLVLLGKKKKKEEEGEGKKKGGGEGGAGADEEKEQSHRPFLMLQARQSEDHPHISSRKKRSVSSGLECDGKVNICCKKQFFVSFKDIGWNDWIIAPSGYHANYCEGECPSHIAGTSGSSLSFHSTVINHYRMRGHSPFANLKSCCVPTKLRPMSMLYYDDGQNIIKKDIQNAIVEECGCS

activin response, activin-responsive luciferase reporter (A3-Luc) in HEK293 cells, against inhibin A-SCUT without M418A (type I receptor (ALK4)): 100 fold lower
B2: activin A (M418A), residual in the inhibin A-SCUT (M418A) preparation (ligand)
chain: B1 chain 2

IC50, FSH release by LβT2 pituitary gonadotrope cells [1]: 1 nM | IC50, decrease in FSH release by primary rat pituitary cells [2]: 0.065 nM
B3: HPLC-purified mature inhibin A (ligand)
chain 1: STPLMSWPWSPSALRLLQRPPEEPAAHANCHRVALNISFQELGWERWIVYPPSFIFHYCHGGCGLHIPPNLSLPVPGAPPTPAQPYSLLPGAQPCCAALPGTMRPLHVRTTSDGGYSFKYETVPNLLTQHCACI
chain 2: GLECDGKVNICCKKQFFVSFKDIGWNDWIIAPSGYHANYCEGECPSHIAGTSGSSLSFHSTVINHYRMRGHSPFANLKSCCVPTKLRPMSMLYYDDGQNIIKKDIQNMIVEECGCS

percent of mature inhibin A co-purified with the HIS-tagged prodomain [3]: > 90%
B4: mature inhibin A (M418A) (ligand)
chain 1: SVSSTPLMSWPWSPSALRLLQRPPEEPAAHANCHRVALNISFQELGWERWIVYPPSFIFHYCHGGCGLHIPPNLSLPVPGAPPTPAQPYSLLPGAQPCCAALPGTMRPLHVRTTSDGGYSFKYETVPNLLTQHCACI
chain 2: SVSSGLECDGKVNICCKKQFFVSFKDIGWNDWIIAPSGYHANYCEGECPSHIAGTSGSSLSFHSTVINHYRMRGHSPFANLKSCCVPTKLRPMSMLYYDDGQNIIKKDIQNAIVEECGCS
